The values that follow come from patent US20190169286A1 (Chugai, published 2019).

One may read the Kd as the constant that tells how readily two partners part at equilibrium. High values mean lower affinity, low ones higher affinity. For orientation: koff means a measure of how fast the partners let go of each other. A lower koff goes with a long-lived complex.

Test [1] has as its target T1, human IL-8 (human, UniProt P10145 23-99, limits assumed).
T1 construct: also called hIL-8; hIL8
As to the kind of experiment: SPR Biacore T200, Protein A/G capture, pH 7.4, 40C.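 Further: antibodies captured via Protein A/G, which was amine-coupled to a CM4 sensor chip.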 In general terms: Surface plasmon resonance follows binding to a sensor surface in real time, without labels.
Experimental: (§1) An appropriate amount of Protein A/G (PIERCE) was immobilized onto the Sensor chip CM4 (GE Healthcare) by the amine coupling method and the antibodies of interest were captured. […] To regenerate the sensor chip, 25 mM NaOH and 10 mM glycine-HCl (pH 1.5) were used. […] The BIACORE T200 Evaluation Software (GE Healthcare) was used to calculate each parameter.

Test [2] deals with T1, human IL-8. As to the kind of experiment: SPR Biacore T200, Protein A/G capture, pH 5.8, 37C.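 Further: antibodies captured by Protein A/G amine-coupled onto a CM4 sensor chip, with kinetic parameters derived using Biacore T200 Evaluation Software.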
Experimental: as §1

T1 sequence (P10145 23-99 limits assumed): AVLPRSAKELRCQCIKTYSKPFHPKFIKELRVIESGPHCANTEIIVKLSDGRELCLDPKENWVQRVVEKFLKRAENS

B1: H0932/L0395 (antibody, name in Kabat numbering, V domains shown)
VH: QVQLVESGGGLVQPGGSLRLSCAASGFTFSDYYLSWVRQAPGKGLEWVGLIRNKDNHHTPEYSASVKGRFTISRDDSKNSLYLTMSDLKTEDTAVYYCARENHRYDVELAYWGQGTLVTVSS
VL: DIQMTQSPSSLSASVGDRVTITCRASEIIYSYLAWYQQKPGKAPKLLIYKAKTHADGVPSRFSGSGSGTDFTFTISSLQPEDIATYYCKHHFGFPRTFGQGTKVEIKR
On to B1, for which the Kd with human IL-8 [1] was 0.16 nM.

B2: H1028/L0442 (antibody, human IgG1, kappa, name in Kabat numbering, V domains shown)
VH: QVQLVESGGGLVQPGGSLRLSCAASGFTFSDYYLSWVRQAPGKGLEWVGLIRNKDNYHHPEYSASVKGRFTISRDDSKNSLYLTMSDLKTEDTAVYYCARENHRYDVELAYWGQGTLVTVSS
VL: DIQMTQSPSSLSASVGDRVTITCRASEIIYEYLAWYQQKPGKAPKLLIYKAKTHADGVPSRFSGSGSGTDFTFTISSLQPEDIATYYCKHHFGFPRTFGQGTKVEIKR
notes: L442 = L395 + S31E
Regarding B2, binding with human IL-8 [1] was put at a Kd of 0.24 nM. In the test with human IL-8 [2], binding was characterised by a dissociation constant (Kd) of 140 nM and the koff came to 0.13 s⁻¹.

B3: H1047/L0442 (antibody, human IgG1, kappa, name in Kabat numbering, V domains shown)
VH: QVQLVESGGGLVQPGGSLRLSCAASGFTFDKYYLSWVRQAPGKGLEWVGLIRNKDNGYTPEYSASVKGRFTISRDDSKNSLYLTMSDLKTEDTAVYYCARENHRYDVELAYWGQGTLVTVSS
VL: DIQMTQSPSSLSASVGDRVTITCRASEIIYEYLAWYQQKPGKAPKLLIYKAKTHADGVPSRFSGSGSGTDFTFTISSLQPEDIATYYCKHHFGFPRTFGQGTKVEIKR
notes: L442 = L395 + S31E
With B3, in the test with human IL-8 [2], binding was characterised by a dissociation constant (Kd) of 47 nM.

B4: H1048/L0395 (antibody, human IgG1, kappa, name in Kabat numbering, V domains shown)
VH: QVQLVESGGGLVQPGGSLRLSCAASGFTFSEYYLSWVRQAPGKGLEWVGLIRNKDNGYTPEYSASVKGRFTISRDDSKNSLYLTMSDLKTEDTAVYYCARENHRYDVELAYWGQGTLVTVSS
VL: DIQMTQSPSSLSASVGDRVTITCRASEIIYSYLAWYQQKPGKAPKLLIYKAKTHADGVPSRFSGSGSGTDFTFTISSLQPEDIATYYCKHHFGFPRTFGQGTKVEIKR
B4 had a Kd with human IL-8 [2] of 90 nM.

B5: H1046/L0442 (antibody, human IgG1, kappa, name in Kabat numbering, V domains shown)
VH: QVQLVESGGGLVQPGGSLRLSCAASGFTFSEYYLSWVRQAPGKGLEWVGLIRNKDNYHHPEYSASVKGRFTISRDDSKNSLYLTMSDLKTEDTAVYYCARENHRYDVELAYWGQGTLVTVSS
VL: DIQMTQSPSSLSASVGDRVTITCRASEIIYEYLAWYQQKPGKAPKLLIYKAKTHADGVPSRFSGSGSGTDFTFTISSLQPEDIATYYCKHHFGFPRTFGQGTKVEIKR
notes: L442 = L395 + S31E
Turning to B5, the Kd with human IL-8 [1] worked out at 0.23 nM.

B6: H1022/L0442 (antibody, human IgG1, kappa, name in Kabat numbering, V domains shown)
VH: QVQLVESGGGLVQPGGSLRLSCAASGFTFSDYYLSWVRQAPGKGLEWVGLIRNKDNHHHPEYSASVKGRFTISRDDSKNSLYLTMSDLKTEDTAVYYCARENHRYDVELAYWGQGTLVTVSS
VL: DIQMTQSPSSLSASVGDRVTITCRASEIIYEYLAWYQQKPGKAPKLLIYKAKTHADGVPSRFSGSGSGTDFTFTISSLQPEDIATYYCKHHFGFPRTFGQGTKVEIKR
notes: L442 = L395 + S31E
Molecule B6 returned a Kd with human IL-8 [1] of 0.36 nM. Further, in the test with human IL-8 [2], binding was characterised by a dissociation constant (Kd) of 180 nM and the koff was 0.02 s⁻¹.

B7: H1048/L0442 (antibody, human IgG1, kappa, name in Kabat numbering, V domains shown)
VH: QVQLVESGGGLVQPGGSLRLSCAASGFTFSEYYLSWVRQAPGKGLEWVGLIRNKDNGYTPEYSASVKGRFTISRDDSKNSLYLTMSDLKTEDTAVYYCARENHRYDVELAYWGQGTLVTVSS
VL: DIQMTQSPSSLSASVGDRVTITCRASEIIYEYLAWYQQKPGKAPKLLIYKAKTHADGVPSRFSGSGSGTDFTFTISSLQPEDIATYYCKHHFGFPRTFGQGTKVEIKR
notes: L442 = L395 + S31E
In turn, B7 displayed a Kd with human IL-8 [2] of 67 nM.

B8: H0932/L0442 (antibody, human IgG1, kappa, name in Kabat numbering, V domains shown)
VH: QVQLVESGGGLVQPGGSLRLSCAASGFTFSDYYLSWVRQAPGKGLEWVGLIRNKDNHHTPEYSASVKGRFTISRDDSKNSLYLTMSDLKTEDTAVYYCARENHRYDVELAYWGQGTLVTVSS
VL: DIQMTQSPSSLSASVGDRVTITCRASEIIYEYLAWYQQKPGKAPKLLIYKAKTHADGVPSRFSGSGSGTDFTFTISSLQPEDIATYYCKHHFGFPRTFGQGTKVEIKR
As for B8, in the test with human IL-8 [2], the affinity, expressed as Kd, was 79 nM.

B9: H1029/L0442 (antibody, human IgG1, kappa, name in Kabat numbering, V domains shown)
VH: QVQLVESGGGLVQPGGSLRLSCAASGFTFDKYYLSWVRQAPGKGLEWVGLIRNKDNHHTPEYSASVKGRFTISRDDSKNSLYLTMSDLKTEDTAVYYCARENHRYDVELAYWGQGTLVTVSS
VL: DIQMTQSPSSLSASVGDRVTITCRASEIIYEYLAWYQQKPGKAPKLLIYKAKTHADGVPSRFSGSGSGTDFTFTISSLQPEDIATYYCKHHFGFPRTFGQGTKVEIKR
notes: L442 = L395 + S31E
In the case of B9, the Kd with human IL-8 [1] came out at 0.14 nM; with human IL-8 [2], 48 nM. This molecule gave a koff in the test with human IL-8 [2] of 0.0085 s⁻¹.

B10: H1000/L0442 (antibody, human IgG1, kappa, name in Kabat numbering, V domains shown)
VH: QVQLVESGGGLVQPGGSLRLSCAASGFTFSEYYLSWVRQAPGKGLEWVGLIRNKDNHHTPEYSASVKGRFTISRDDSKNSLYLTMSDLKTEDTAVYYCARENHRYDVELAYWGQGTLVTVSS
VL: DIQMTQSPSSLSASVGDRVTITCRASEIIYEYLAWYQQKPGKAPKLLIYKAKTHADGVPSRFSGSGSGTDFTFTISSLQPEDIATYYCKHHFGFPRTFGQGTKVEIKR
notes: L442 = L395 + S31E
In the case of B10, the Kd in the test with human IL-8 [1] came out at 0.2 nM. Moreover, in the test with human IL-8 [2], the Kd was 71 nM and the koff was 0.017 s⁻¹.

B11: H1004/L0442 (antibody, human IgG1, kappa, name in Kabat numbering, V domains shown)
VH: QVQLVESGGGLVQPGGSLRLSCAASGFTFSDYYLSWVRQAPGKGLEWVGLIRNKDNGYTPEYSASVKGRFTISRDDSKNSLYLTMSDLKTEDTAVYYCARENHRYDVELAYWGQGTLVTVSS
VL: DIQMTQSPSSLSASVGDRVTITCRASEIIYEYLAWYQQKPGKAPKLLIYKAKTHADGVPSRFSGSGSGTDFTFTISSLQPEDIATYYCKHHFGFPRTFGQGTKVEIKR
notes: L442 = L395 + S31E
For the molecule B11, the Kd with human IL-8 [1] stood at 0.22 nM; with human IL-8 [2], 77 nM. Further, the koff in the test with human IL-8 [2] stood at 0.02 s⁻¹.

B12: H1031/L0442 (antibody, human IgG1, kappa, name in Kabat numbering, V domains shown)
VH: QVQLVESGGGLVQPGGSLRLSCAASGFTFDKYYLSWVRQAPGKGLEWVGLIRNKDNHHHPEYSASVKGRFTISRDDSKNSLYLTMSDLKTEDTAVYYCARENHRYDVELAYWGQGTLVTVSS
VL: DIQMTQSPSSLSASVGDRVTITCRASEIIYEYLAWYQQKPGKAPKLLIYKAKTHADGVPSRFSGSGSGTDFTFTISSLQPEDIATYYCKHHFGFPRTFGQGTKVEIKR
notes: L442 = L395 + S31E
B12: the Kd with human IL-8 [2] worked out at 89 nM.

B13: H1009/L0442 (antibody, human IgG1, kappa, name in Kabat numbering, V domains shown)
VH: QVQLVESGGGLVQPGGSLRLSCAASGFTFSDYYLSWVRQAPGKGLEWVGLIRNKDNYHTPEYSASVKGRFTISRDDSKNSLYLTMSDLKTEDTAVYYCARENHRYDVELAYWGQGTLVTVSS
VL: DIQMTQSPSSLSASVGDRVTITCRASEIIYEYLAWYQQKPGKAPKLLIYKAKTHADGVPSRFSGSGSGTDFTFTISSLQPEDIATYYCKHHFGFPRTFGQGTKVEIKR
notes: L442 = L395 + S31E
As to B13, in the test with human IL-8 [1], binding was characterised by a dissociation constant (Kd) of 0.11 nM. Moreover, in the test with human IL-8 [2], the Kd turned out to be 63 nM and the koff came out at 0.006 s⁻¹.

B14: H1029/L0395 (antibody, human IgG1, kappa, name in Kabat numbering, V domains shown)
VH: QVQLVESGGGLVQPGGSLRLSCAASGFTFDKYYLSWVRQAPGKGLEWVGLIRNKDNHHTPEYSASVKGRFTISRDDSKNSLYLTMSDLKTEDTAVYYCARENHRYDVELAYWGQGTLVTVSS
VL: DIQMTQSPSSLSASVGDRVTITCRASEIIYSYLAWYQQKPGKAPKLLIYKAKTHADGVPSRFSGSGSGTDFTFTISSLQPEDIATYYCKHHFGFPRTFGQGTKVEIKR
Molecule B14 registered a Kd in the test with human IL-8 [1] of 0.086 nM. In addition, in the test with human IL-8 [2], binding was put at a Kd of 55 nM and the koff stood at 0.008 s⁻¹.

B15: H1000/L0395 (antibody, human IgG1, kappa, name in Kabat numbering, V domains shown)
VH: QVQLVESGGGLVQPGGSLRLSCAASGFTFSEYYLSWVRQAPGKGLEWVGLIRNKDNHHTPEYSASVKGRFTISRDDSKNSLYLTMSDLKTEDTAVYYCARENHRYDVELAYWGQGTLVTVSS
VL: DIQMTQSPSSLSASVGDRVTITCRASEIIYSYLAWYQQKPGKAPKLLIYKAKTHADGVPSRFSGSGSGTDFTFTISSLQPEDIATYYCKHHFGFPRTFGQGTKVEIKR
On to B15, for which the Kd with human IL-8 [1] turned out to be 0.14 nM. Further, in the test with human IL-8 [2], the Kd is 89 nM and the koff is 0.02 s⁻¹.

B16: H1032/L0395 (antibody, human IgG1, kappa, name in Kabat numbering, V domains shown)
VH: QVQLVESGGGLVQPGGSLRLSCAASGFTFDKYYLSWVRQAPGKGLEWVGLIRNKDNGYHPEYSASVKGRFTISRDDSKNSLYLTMSDLKTEDTAVYYCARENHRYDVELAYWGQGTLVTVSS
VL: DIQMTQSPSSLSASVGDRVTITCRASEIIYSYLAWYQQKPGKAPKLLIYKAKTHADGVPSRFSGSGSGTDFTFTISSLQPEDIATYYCKHHFGFPRTFGQGTKVEIKR
B16 returned a Kd with human IL-8 [1] of 0.042 nM. In the test with human IL-8 [2], this molecule showed a Kd of 50 nM and a koff of 0.0041 s⁻¹.

B17: H1022/L0395 (antibody, human IgG1, kappa, name in Kabat numbering, V domains shown)
VH: QVQLVESGGGLVQPGGSLRLSCAASGFTFSDYYLSWVRQAPGKGLEWVGLIRNKDNHHHPEYSASVKGRFTISRDDSKNSLYLTMSDLKTEDTAVYYCARENHRYDVELAYWGQGTLVTVSS
VL: DIQMTQSPSSLSASVGDRVTITCRASEIIYSYLAWYQQKPGKAPKLLIYKAKTHADGVPSRFSGSGSGTDFTFTISSLQPEDIATYYCKHHFGFPRTFGQGTKVEIKR
Take B17: binding with human IL-8 [1] was characterised by a dissociation constant (Kd) of 0.27 nM. In addition, in the test with human IL-8 [2], the Kd was 290 nM and the koff was 12 s⁻¹.

B18: H1031/L0395 (antibody, human IgG1, kappa, name in Kabat numbering, V domains shown)
VH: QVQLVESGGGLVQPGGSLRLSCAASGFTFDKYYLSWVRQAPGKGLEWVGLIRNKDNHHHPEYSASVKGRFTISRDDSKNSLYLTMSDLKTEDTAVYYCARENHRYDVELAYWGQGTLVTVSS
VL: DIQMTQSPSSLSASVGDRVTITCRASEIIYSYLAWYQQKPGKAPKLLIYKAKTHADGVPSRFSGSGSGTDFTFTISSLQPEDIATYYCKHHFGFPRTFGQGTKVEIKR
B18 had a Kd with human IL-8 [2] of 99 nM.

B19: H1028/L0395 (antibody, human IgG1, kappa, name in Kabat numbering, V domains shown)
VH: QVQLVESGGGLVQPGGSLRLSCAASGFTFSDYYLSWVRQAPGKGLEWVGLIRNKDNYHHPEYSASVKGRFTISRDDSKNSLYLTMSDLKTEDTAVYYCARENHRYDVELAYWGQGTLVTVSS
VL: DIQMTQSPSSLSASVGDRVTITCRASEIIYSYLAWYQQKPGKAPKLLIYKAKTHADGVPSRFSGSGSGTDFTFTISSLQPEDIATYYCKHHFGFPRTFGQGTKVEIKR
B19: the Kd in the test with human IL-8 [1] came out at 0.18 nM; in the test with human IL-8 [2] it was 210 nM.
